Square brackets hold non-standard residues; d marks the D form.
molecular target: Aβ42 (UniProt P05067 672-713); test: cell-based or functional assay
Sequence (P05067 672-713 limits assumed): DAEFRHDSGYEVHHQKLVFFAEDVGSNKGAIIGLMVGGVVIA

Binder	% inhibition of fibril formation (ThT), AP:Aβ42 1:1 [%]	% inhibition of fibril formation (ThT), AP:Aβ42 1:10 [%]	% inhibition of fibril formation (ThT), AP:Aβ42 1:100 [%]
Ac-[dR]G[dE]M[dN]Y[dF]W[dM][dN][dE][dY][dY]G[dW]T[dM]N[dC]K[dM]G[dR]-NH2 (also: disulfide-linked homodimer (Cys19 to Cys19 of other copy), disulfide at 19, other end not in the chain) [AP516d]	100	98.2	51.3
Ac-[dR]G[dN]W[dN]E[dS]K[dM][dN][dE][dY][dY]G[dW]M[dL]M[dC]T[dM]G[dR]-NH2 (SMILES CSCC[C@H](NC(=O)[C@@H](Cc1c[nH]c2ccccc12)NC(=O)CNC(=O)[C@@H](Cc1ccc(O)cc1)NC(=O)[C@@H](Cc1ccc(O)cc1)NC(=O)[C@@H](CCC(=O)O)NC(=O)[C@@H](CC(N)=O)NC(=O)[C@@H](CCSC)NC(=O)[C@H](CCCCN)NC(=O)[C@@H](CO)NC(=O)[C@H](CCC(=O)O)NC(=O)[C@@H](CC(N)=O)NC(=O)[C@H](Cc1c[nH]c2ccccc12)NC(=O)[C@@H](CC(N)=O)NC(=O)CNC(=O)[C@@H](CCCNC(=N)N)NC(C)=O)C(=O)N[C@H](CC(C)C)C(=O)N[C@@H](CCSC)C(=O)N[C@H](CS)C(=O)N[C@H](C(=O)N[C@H](CCSC)C(=O)NCC(=O)N[C@H](CCCNC(=N)N)C(N)=O)[C@@H](C)O) [AP506m]	67.6	0	0
Ac-RGE[dC]N[dL]S[dW]MNEYSGW[dT]M[dN]M[dK]MGR-NH2 (SMILES CSCC[C@H](NC(=O)[C@@H](CCCCN)NC(=O)[C@H](CCSC)NC(=O)[C@@H](CC(N)=O)NC(=O)[C@H](CCSC)NC(=O)[C@H](NC(=O)[C@H](Cc1c[nH]c2ccccc12)NC(=O)CNC(=O)[C@H](CO)NC(=O)[C@H](Cc1ccc(O)cc1)NC(=O)[C@H](CCC(=O)O)NC(=O)[C@H](CC(N)=O)NC(=O)[C@H](CCSC)NC(=O)[C@@H](Cc1c[nH]c2ccccc12)NC(=O)[C@H](CO)NC(=O)[C@@H](CC(C)C)NC(=O)[C@H](CC(N)=O)NC(=O)[C@@H](CS)NC(=O)[C@H](CCC(=O)O)NC(=O)CNC(=O)[C@H](CCCNC(=N)N)NC(C)=O)[C@H](C)O)C(=O)NCC(=O)N[C@@H](CCCNC(=N)N)C(N)=O) [AP521m]	74	34.6	0
Ac-RGN[dW]N[dE]S[dK]MNEYSGW[dM]L[dM]C[dT]MGR-NH2 (SMILES CSCC[C@H](NC(=O)[C@@H](CCCCN)NC(=O)[C@H](CO)NC(=O)[C@@H](CCC(=O)O)NC(=O)[C@H](CC(N)=O)NC(=O)[C@@H](Cc1c[nH]c2ccccc12)NC(=O)[C@H](CC(N)=O)NC(=O)CNC(=O)[C@H](CCCNC(=N)N)NC(C)=O)C(=O)N[C@@H](CC(N)=O)C(=O)N[C@@H](CCC(=O)O)C(=O)N[C@@H](Cc1ccc(O)cc1)C(=O)N[C@@H](CO)C(=O)NCC(=O)N[C@@H](Cc1c[nH]c2ccccc12)C(=O)N[C@H](CCSC)C(=O)N[C@@H](CC(C)C)C(=O)N[C@H](CCSC)C(=O)N[C@@H](CS)C(=O)N[C@@H](C(=O)N[C@@H](CCSC)C(=O)NCC(=O)N[C@@H](CCCNC(=N)N)C(N)=O)[C@H](C)O) [AP500m]	76.6	9	0
Ac-RGE[dM]N[dL]S[dW]MNEYSGW[dT]M[dN]C[dK]MGR-NH2 (also: disulfide-linked homodimer via Cys19) [AP520d]	100	91.2	45.3
Ac-RGE[dM]N[dL]S[dW]MNEYSGW[dT]M[dN]C[dK]MGR-NH2 (SMILES CSCC[C@H](NC(=O)[C@@H](CCCCN)NC(=O)[C@H](CS)NC(=O)[C@@H](CC(N)=O)NC(=O)[C@H](CCSC)NC(=O)[C@H](NC(=O)[C@H](Cc1c[nH]c2ccccc12)NC(=O)CNC(=O)[C@H](CO)NC(=O)[C@H](Cc1ccc(O)cc1)NC(=O)[C@H](CCC(=O)O)NC(=O)[C@H](CC(N)=O)NC(=O)[C@H](CCSC)NC(=O)[C@@H](Cc1c[nH]c2ccccc12)NC(=O)[C@H](CO)NC(=O)[C@@H](CC(C)C)NC(=O)[C@H](CC(N)=O)NC(=O)[C@@H](CCSC)NC(=O)[C@H](CCC(=O)O)NC(=O)CNC(=O)[C@H](CCCNC(=N)N)NC(C)=O)[C@H](C)O)C(=O)NCC(=O)N[C@@H](CCCNC(=N)N)C(N)=O) [AP520m]	47	33.1	0
Ac-RGN[dW]C[dE]S[dK]MNEYYGW[dM]L[dM]L[dT]MGR-NH2 (not fully specified (residue 5); printed as RGNwCeSkMNEYYGWmLmLtMGR) [AP505m]	26.8	16.4	0
Ac-[dR]G[dE]M[dN]Y[dF]W[dM][dN][dE][dY][dY]G[dW]T[dM]N[dC]K[dM]G[dR]-NH2 (SMILES CSCC[C@H](NC(=O)[C@@H](CCC(=O)O)NC(=O)CNC(=O)[C@@H](CCCNC(=N)N)NC(C)=O)C(=O)N[C@H](CC(N)=O)C(=O)N[C@@H](Cc1ccc(O)cc1)C(=O)N[C@H](Cc1ccccc1)C(=O)N[C@@H](Cc1c[nH]c2ccccc12)C(=O)N[C@H](CCSC)C(=O)N[C@H](CC(N)=O)C(=O)N[C@H](CCC(=O)O)C(=O)N[C@H](Cc1ccc(O)cc1)C(=O)N[C@H](Cc1ccc(O)cc1)C(=O)NCC(=O)N[C@H](Cc1c[nH]c2ccccc12)C(=O)N[C@H](C(=O)N[C@H](CCSC)C(=O)N[C@@H](CC(N)=O)C(=O)N[C@H](CS)C(=O)N[C@@H](CCCCN)C(=O)N[C@H](CCSC)C(=O)NCC(=O)N[C@H](CCCNC(=N)N)C(N)=O)[C@@H](C)O) [AP516m]	76.6	56.4	0
Ac-RGN[dW]C[dE]S[dK]MNEYYGW[dM]L[dM]L[dT]MGR-NH2 (not fully specified (residue 5); printed as RGNwCeSkMNEYYGWmLmLtMGR; also: disulfide-linked homodimer via Cys5) [AP505d]	100	79.5	51.4
Ac-[dR]G[dN]W[dN]E[dS]K[dM][dN][dE][dY][dY]G[dW]M[dL]M[dC]T[dM]G[dR]-NH2 (also: disulfide-linked homodimer (Cys19 to Cys19 of other copy), disulfide at 19, other end not in the chain) [AP506d]	100	100	49.1

— patent US20230048960A1 (University of Washington, published 2023)
